Source: patent US20040091480A1 (Kyowa Kirin, published 2004)
Blank lines part the entries; values can stand above or below the binder they belong to.

Assays:
[1] = target: T1, C-terminus-biotin labeled compound 1 (an N-terminus peptide of FGF-8) (human, C-terminus biotin label); experiment: BIAcore 2000, biotin FGF-8 peptide on SA chip, antibody in solution, RU compared; dissociation hardly observed
T1 construct: also called FGF-8 peptide
T1 peptide: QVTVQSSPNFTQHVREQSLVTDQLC
Procedure: In order to examine the activity of various anti-FGF-8 CDR-grafted antibodies obtained in the item 5 of Example 5 to bind to FGF-8 in more detail, activities of various anti-FGF-8 CDR-grafted antibodies to bind to FGF-8 were measured and compared as follows by using BIAcore 2000 (manufactured by BIACORE). The CHO/DG44-derived anti-FGF-8 chimeric antibody KM3034 obtained in the item 3(1) of Example 3 was used as a positive control.
Hereinbelow, HBS-EP (manufactured by Pharmacia) was used as the buffer solution for dilution of samples and during the measurement. First, a sensor tip SA (manufactured by BIACORE) was set, and 5 μl of a C-terminus-biotin labeled compound 1 (an N-terminus peptide of FGF-8; SEQ ID NO:17) prepared to a solution of 0.05 μg/ml was added thereto at a flow rate of […]. Thereafter, the tip surface was washed by adding 5 μl of 10 mmol/l Glycine-HCl buffer (pH 1.5) continuously twice. Immobilized amount of the FGF-8 peptide was 35 RU.
To the FGF-8 peptide immobilized flow cell, 60 μl of each antibody solution was added at a flow rate of 20 μl/minute, and then the dissociation reaction was monitored for 3 minutes. After the dissociation reaction, the tip surface was regenerated by adding 20 μl of 10 mmol/l Glycine-HCl buffer (pH 1.5) continuously twice. This cycle was carried out for antibody solutions of various concentrations (50 to 1.85 μg/ml), and a sensorgram at each concentration was obtained. The sensorgram of each antibody was made into a sensorgram of specific reaction by subtracting a sensorgram obtained using a chimeric antibody KM871 for GD3 [Cancer Immunol. Immunother., 36, 373 (1993)] as a negative control.

[2] = target: T2, BSA-compound 1 (Compound 1, human FGF-8 peptide, conjugated with bovine serum albumin) (human, conjugated to BSA through SMCC); experiment: ELISA on BSA-compound 1, positive control
T2 peptide: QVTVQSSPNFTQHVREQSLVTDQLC
Procedure: The conjugate prepared in the above was dispensed at 50 μl/well into a 96 well plate for ELISA (manufactured by Greiner) at a concentration of 0.5 to 1.0 μg/ml and allowed to stand for adsorption overnight at 4° C. After washing with PBS, 1% BSA-containing PBS (BSA-PBS) was added at 100 μl/well and allowed for blocking of remaining active groups to react at room temperature for 1 hour. After washing each well with 0.05% Tween-containing PBS (Tween-PBS), culture supernatants of transformants or purified antibodies were added at 50 μl/well and allowed to react at room temperature for 1 hour. After the reaction, each well was washed with Tween-PBS and then a peroxidase-labeled goat anti-human IgG (H & L) antibody solution (manufactured by American Qualex) diluted 3,000 to 6,000-folds with BSA-PBS was added as a secondary antibody solution at 50 μl/well and allowed to react at room temperature for 1 hour. […] Thereafter, absorbance at 415 nm (OD415) was measured.
The activity of various anti-FGF-8 CDR-grafted antibodies obtained in the item 4 of Example 4 to bind to FGF-8 was measured by the ELISA described in the item 2(6) of Example 3. […]

[3] = target: T2, BSA-compound 1 (Compound 1, human FGF-8 …); experiment: ELISA on BSA-compound 1
Procedure: The conjugate prepared in the above was dispensed at 50 μl/well into a 96 well plate for ELISA (manufactured by Greiner) at a concentration of 0.5 to 1.0 μg/ml and allowed to stand for adsorption overnight at 4° C. After washing with PBS, 1% BSA-containing PBS (BSA-PBS) was added at 100 μl/well and allowed for blocking of remaining active groups to react at room temperature for 1 hour. After washing each well with 0.05% Tween-containing PBS (Tween-PBS), culture supernatants of transformants or purified antibodies were added at 50 μl/well and allowed to react at room temperature for 1 hour. After the reaction, each well was washed with Tween-PBS and then a peroxidase-labeled goat anti-human IgG (H & L) antibody solution (manufactured by American Qualex) diluted 3,000 to 6,000-folds with BSA-PBS was added as a secondary antibody solution at 50 μl/well and allowed to react at room temperature for 1 hour. After the reaction and subsequent washing with Tween-PBS, an ABTS substrate solution [a solution prepared by dissolving 0.55 g of 2,2′-azinobis(3-ethylbenzothiazoline-6-sulfonic acid) ammonium in 1 L of 0.1 M citrate buffer (pH 4.2) and adding 1 μl/ml hydrogen peroxide just before use] was added at 50 μl/well for color development, and the reaction was stopped by adding 5% SDS solution at 50 μl/well. Thereafter, absorbance at 415 nm (OD415) was measured.
The activity of various anti-FGF-8 CDR-grafted antibodies obtained in the item 4 of Example 4 to bind to FGF-8 was measured by the ELISA described in the item 2(6) of Example 3. The YB2/0-derived anti-FGF-8 chimeric antibody KM3334 obtained in the item 3(2) of Example 3 was used as a positive control.

[4] = target: T3, human FGF-8 partial peptide (Sequence ID NO:1) cross-linked with thyroglobulin (human, cross-linked to thyroglobulin (THY) with glutaraldehyde); experiment: enzyme immunoassay, peptide-thyroglobulin conjugate coated on the plate
T3 construct: Coated on the plate as a thyroglobulin conjugate; also called THY-FGF-8 peptide antigen; FGF-8 peptide
T3 peptide: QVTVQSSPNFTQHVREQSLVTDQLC
Procedure: A conjugate obtained by cross-linking the human FGF-8 partial peptide shown in Sequence ID NO:1 with thyroglobulin in the following manner was used as the antigen for the assay. That is, 1 mg of the peptide was dissolved in 0.1 M ammonium acetate buffer and the solution was adjusted to 1 ml by adding 5 mg of THY which has been dissolved in advance in the same buffer. To this, while stirring, was added dropwise 540 μl of 0.02 M glutaraldehyde, followed by 5 hours of stirring at room temperature to effect the reaction. After the reaction, the reaction solution was dialyzed overnight against PBS and used as the antigen. A conjugate obtained in the same manner by cross-linking the peptide shown in Sequence ID NO:2 with THY was used as a reference antigen. […] After washing with Tween-PBS, a peroxidase-labeled rabbit anti-mouse immunoglobulin (manufactured by DAKO) was distributed in 50 μl portions into wells of the plate to carry out 1 hour of reaction at room temperature, the plate was again washed with Tween-PBS, and then color development was effected using an ABTS substrate [2,2-azinobis(3-ethylbenzothiazole-6-sulfonic acid)ammonium] solution and absorbance at OD₄₁₅ was measured (NJ 2001, Japan Intermed).

[5] = target: T4, FGF-8 (manufactured by R&D) (UniProt P55075-3 23-215, limits assumed); experiment: cell-based or functional assay
T4 sequence (looked up): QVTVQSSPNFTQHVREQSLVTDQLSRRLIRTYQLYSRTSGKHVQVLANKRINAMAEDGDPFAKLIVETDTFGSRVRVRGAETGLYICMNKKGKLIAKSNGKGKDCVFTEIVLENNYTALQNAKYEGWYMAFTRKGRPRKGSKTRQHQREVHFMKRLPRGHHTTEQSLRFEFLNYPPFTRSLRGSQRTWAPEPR

[6] = target: T1, C-terminus-biotin labeled compound 1 …; experiment: BIAcore 2000, biotin FGF-8 peptide on SA chip, Example 6, RU compared; dissociation hardly observed

binding result [1]: binds
B1: anti-FGF-8 CDR-grafted antibody HV0LV3-1/CHO (antibody, V domains shown)
VH: QVQLVQSGAEVKKPGASVKVSCKASGYTFTDYYLNWVRQAPGQGLEWMGEIDPGSDSIYYNENLEGRVTITADTSTSTAYMELSSLRSEDTAVYYCARYGYSRYDVRFVYWGQGTLVTVSS
VL: DVVMTQSPLSLPVTPGEPASISCRSSQSLVHSNGRTYLEWYLQKPGQSPQVLIYKVSNRISGVPDRFSGSGSGTDFTLKISRVEAEDVGVYFCFQGSHVPYTFGQGTKVEIK
notes: HV.0 + LV.3-1, human gamma1/kappa constant regions, made in CHO/DG44 cells; also called KM8036; FERM BP-8083

binding result [2]: binds
B2: anti-FGF-8 chimeric antibody KM3334 (antibody, V domains shown)
VH: QVQLQQSGAEVARPGASVKLSCKASGYTFTDYYLNWVKQRSGQGLEWIGEIDPGSDSIYYNENLEGRATLTADKSSSTAYMQLNSLTSEDSAVYFCARYGYSRYDVRFVYWGQGTLVTVST
VL: DVLMTQTPLSLPVSLGDQASISCRSSQSLVHSNGRTYLEWYLQKPGQSPKVLIYKVSNRISGVPDRFSGSGSGTDFTLKISRVEAEDLGVYFCFQGSHVPYTFGGGTKLEIK

binding result [3]: binds
B3: anti-FGF-8 CDR-grafted antibody HV0LV6 (YB2/0 cell-derived) (antibody, V domains shown)
VH: QVQLVQSGAEVKKPGASVKVSCKASGYTFTDYYLNWVRQAPGQGLEWMGEIDPGSDSIYYNENLEGRVTITADTSTSTAYMELSSLRSEDTAVYYCARYGYSRYDVRFVYWGQGTLVTVSS
VL: DVVMTQSPLSLPVSLGEPASISCRSSQSLVHSNGRTYLEWYLQKPGQSPKVLIYKVSNRISGVPDRFSGSGSGTDFTLKISRVEAEDVGVYFCFQGSHVPYTFGQGTKVEIK
notes: also called KM8037; FERM BP-8084

binding result [1]: binds
B4: anti-FGF-8 chimeric antibody KM3034 (antibody, V domains shown)
VH: QVQLQQSGAEVARPGASVKLSCKASGYTFTDYYLNWVKQRSGQGLEWIGEIDPGSDSIYYNENLEGRATLTADKSSSTAYMQLNSLTSEDSAVYFCARYGYSRYDVRFVYWGQGTLVTVST
VL: DVLMTQTPLSLPVSLGDQASISCRSSQSLVHSNGRTYLEWYLQKPGQSPKVLIYKVSNRISGVPDRFSGSGSGTDFTLKISRVEAEDLGVYFCFQGSHVPYTFGGGTKLEIK
notes: Human chimeric antibody, human gamma1 CH and kappa CL (vector pKANTEX93), made in CHO/DG44 cells; also called FERM BP-7836

binding result [4]: binds
B5: anti-FGF-8 monoclonal antibody KM 1334 (antibody, mouse IgG1, V domains shown)
VH: QVQLQQSGAEVARPGASVKLSCKASGYTFTDYYLNWVKQRSGQGLEWIGEIDPGSDSIYYNENLEGRATLTADKSSSTAYMQLNSLTSEDSAVYFCARYGYSRYDVRFVYWGQGTLVTVST
VL: DVLMTQTPLSLPVSLGDQASISCRSSQSLVHSNGRTYLEWYLQKPGQSPKVLIYKVSNRISGVPDRFSGSGSGTDFTLKISRVEAEDLGVYFCFQGSHVPYTFGGGTKLEIK
notes: Mouse IgG1, kappa L chain, purified from ascites; also called anti-FGF-8 mouse antibody KM1334; antibody of hybridoma FERM BP-5451

binding result [1]: binds
B6: anti-FGF-8 CDR-grafted antibody HV0LV6/CHO (antibody, V domains shown)
VH: QVQLVQSGAEVKKPGASVKVSCKASGYTFTDYYLNWVRQAPGQGLEWMGEIDPGSDSIYYNENLEGRVTITADTSTSTAYMELSSLRSEDTAVYYCARYGYSRYDVRFVYWGQGTLVTVSS
VL: DVVMTQSPLSLPVSLGEPASISCRSSQSLVHSNGRTYLEWYLQKPGQSPKVLIYKVSNRISGVPDRFSGSGSGTDFTLKISRVEAEDVGVYFCFQGSHVPYTFGQGTKVEIK
notes: also called KM8034

FGF-8 neutralization activity, FGF-8-dependent growth of SC-3 cells [5]: ~0.5 fold of the activity of KM3034
B7: anti-FGF-8 CDR-grafted antibody HV0LV3-3/CHO (antibody, V domains shown)
VH: QVQLVQSGAEVKKPGASVKVSCKASGYTFTDYYLNWVRQAPGQGLEWMGEIDPGSDSIYYNENLEGRVTITADTSTSTAYMELSSLRSEDTAVYYCARYGYSRYDVRFVYWGQGTLVTVSS
VL: DIVMTQSPLSLPVSLGEPASISCRSSQSLVHSNGRTYLEWYLQKPGQSPQVLIYKVSNRISGVPDRFSGSGSGTDFTLKISRVEAEDVGVYYCFQGSHVPYTFGQGTKVEIK

binding result [3]: binds
B8: anti-FGF-8 CDR-grafted antibody HV0LV0 (YB2/0 cell-derived) (antibody, V domains shown)
VH: QVQLVQSGAEVKKPGASVKVSCKASGYTFTDYYLNWVRQAPGQGLEWMGEIDPGSDSIYYNENLEGRVTITADTSTSTAYMELSSLRSEDTAVYYCARYGYSRYDVRFVYWGQGTLVTVSS
VL: DIVMTQSPLSLPVTPGEPASISCRSSQSLVHSNGRTYLEWYLQKPGQSPQLLIYKVSNRISGVPDRFSGSGSGTDFTLKISRVEAEDVGVYYCFQGSHVPYTFGQGTKVEIK

binding result [3]: binds
B9: anti-FGF-8 CDR-grafted antibody HV6LV6 (YB2/0 cell-derived) (antibody, V domains shown)
VH: QVQLVQSGAEVARPGASVKVSCKASGYTFTDYYLNWVRQRSGQGLEWIGEIDPGSDSIYYNENLEGRVTITADTSTSTAYMELSSLRSEDTAVYFCARYGYSRYDVRFVYWGQGTLVTVSS
VL: DVVMTQSPLSLPVSLGEPASISCRSSQSLVHSNGRTYLEWYLQKPGQSPKVLIYKVSNRISGVPDRFSGSGSGTDFTLKISRVEAEDVGVYFCFQGSHVPYTFGQGTKVEIK

FGF-8 neutralization activity, FGF-8-dependent growth of SC-3 cells [5]: ~0.5 fold of the activity of KM3034
binding result [6]: binds
B10: anti-FGF-8 CDR-grafted antibody HV0LV4-3/CHO (antibody, V domains shown)
VH: QVQLVQSGAEVKKPGASVKVSCKASGYTFTDYYLNWVRQAPGQGLEWMGEIDPGSDSIYYNENLEGRVTITADTSTSTAYMELSSLRSEDTAVYYCARYGYSRYDVRFVYWGQGTLVTVSS
VL: DIVMTQSPLSLPVSLGEPASISCRSSQSLVHSNGRTYLEWYLQKPGQSPQVLIYKVSNRISGVPDRFSGSGSGTDFTLKISRVEAEDVGVYFCFQGSHVPYTFGQGTKVEIK
notes: HV.0 + LV.4-3, human gamma1/kappa constant regions, made in CHO/DG44 cells; also called KM8035

binding result [1]: binds
B11: anti-FGF-8 CDR-grafted antibody HV0LV0/CHO (antibody, V domains shown)
VH: QVQLVQSGAEVKKPGASVKVSCKASGYTFTDYYLNWVRQAPGQGLEWMGEIDPGSDSIYYNENLEGRVTITADTSTSTAYMELSSLRSEDTAVYYCARYGYSRYDVRFVYWGQGTLVTVSS
VL: DIVMTQSPLSLPVTPGEPASISCRSSQSLVHSNGRTYLEWYLQKPGQSPQLLIYKVSNRISGVPDRFSGSGSGTDFTLKISRVEAEDVGVYYCFQGSHVPYTFGQGTKVEIK
